According to US5766897A, “Cysteine-pegylated proteins” (Incyte Pharmaceuticals, Inc., priority 1995, dated 1998):
Residue numbers refer to the chain shown, from its start. Numbers in names are those of the source.

B1: PN-1 (protein, UniProt P07093 20-398, looked up)
Glia-derived nexin: SHFNPLSLEELGSNTGIQVFNQIVKSRPHDNIVISPHGIASVLGMLQLGADGRTKKQLAMVMRYGVNGVGKILKKINKAIVSKKNKDIVTVANAVFVKNASEIEVPFVTRNKDVFQCEVRNVNFEDPASACDSINAWVKNETRDMIDNLLSPDLIDGVLTRLVLVNAVYFKGLWKSRFQPENTKKRTFVAADGKSYQVPMLAQLSVFRCGSTSAPNDLWYNFIELPYHGESISMLIALPTESSTPLSAIIPHISTKTIDSWMSIMVPKRVQVILPKFTAVAQTDLKEPLKVLGITDMFDSSKANFAKITTGSENLHVSHILQKAKIEVSEDGTKASAATTAILIARSSPPWFIVDRPFLFFIRHNPTGAVLFMGQINKP
B2: cysteine-PEGylated N99C;N140C: N99C;N140C PN-1 variant PEGylated at cysteines by reaction with Maleimido-PEG (PEG MW about 5,000) (conjugate, UniProt P07093 20-398, looked up, variant N99C N140C)
Glia-derived nexin: B1 Glia-derived nexin with N99C, N140C
modifications: cysteine-linked maleimido-PEG 5 kDa
B3: N99C;N140C (protein, UniProt P07093 20-398, looked up, variant N99C N140C)
Glia-derived nexin: B1 Glia-derived nexin with N99C, N140C

Experiments:
[1] = test system: human neutrophil elastase; conditions: background statement; cited from earlier work
[2] = test system: human neutrophil elastase; test: second-order association rate constant vs elastase; assay type: biochemical
Description: Refolded or soluble protein was tested for capacity to inhibit thrombin in a standard assay. Briefly, serial 2-fold dilutions of PN-1 variant were added to microtiter plate wells (50 μl/well), followed by 50 μl of a 30 μg/ml heparin solution, followed by 1 NIH unit of thrombin in 50 μl. These were allowed to incubate at 25° C. for 15 minutes. Residual thrombin activity was measured by the addition of 50 μl S-2238 (Kabi Pharmaceuticals) at 0.625 mg/ml. […]
The second-order rate association constants were determined for appropriate inhibitors-proteases combinations by combining equal-molar amounts of each protein (determined by titration as above) for various times from 1 second to 4 hours (as appropriate) and following the activity loss. […] Alternatively, the apparent first order rate constant was determined from the slope of a plot of log (normalized activity) vs time. The second order rate constant was calculated by dividing the apparent first order rate constant by the PN-1 (or variant) concentration used.

[3] = molecular target: T1, Thrombin (Homo sapiens, UniProt P00734); test: thrombin inhibition activity assay (D.4), specific activity; assay type: biochemical; conditions: for ACTIVITY, AFTER PEG MODIFICATION: after cysteine-PEGylation with Maleimido-PEG; for REL TO WT, BEFORE PEG MODIFICATION: activity relative to wild type PN-1; for REL TO ACTIVITY BEFORE PEG, AFTER PEG MODIFICATION: cysteine-PEGylated protein relative to same protein before PEGylation
Description: Refolded or soluble protein was tested for capacity to inhibit thrombin in a standard assay. Briefly, serial 2-fold dilutions of PN-1 variant were added to microtiter plate wells (50 μl/well), followed by 50 μl of a 30 μg/ml heparin solution, followed by 1 NIH unit of thrombin in 50 μl. These were allowed to incubate at 25° C. for 15 minutes. Residual thrombin activity was measured by the addition of 50 μl S-2238 (Kabi Pharmaceuticals) at 0.625 mg/ml. PN-1 variants were tested for their ability to inhibit urokinase using the substrate S-2444, plasmin using the substrate S-2390, tPA using the substrate S2288, Factor Xa using the substrate S-2222 or S-2765, kallikrein using the substrate S-2302, human neutrophil elastase using s-AAPV-pna (Sigma), cathepsin G using s-AAPF-pna (Sigma) in a similar manner, with or without the addition of heparin.
Each of the PN-1 site-directed mutant proteins, as well as wild type PN-1, were modified by cysteine-PEGylation using the protocol described in F.2. The activity of wild type PN-1, each of the PN-1 site-directed mutants, and the cysteine-PEGylated wild type and mutant proteins was determined using the assay described in D.4.

[4] = molecular target: T1, Thrombin; conditions: background statement; cited from earlier work
[5] = test system: Cathepsin G; conditions: background statement; cited from earlier work
[6] = test system: E. coli; test: bactericidal effect of PN-1 added to E. coli; assay type: cell-based; conditions: native PN-1 added to E. coli
Description: Alternatively, PN-1 can be generated in a soluble form within E. coli by adjusting the fermentation conditions. This procedure provides a greater yield of soluble PN-1 as the fermentation temperature is decreased from 37° C. to 26° C. with a concomitant loss in inclusion body material. This is quite an unexpected finding, since PN-1 is bactericidal when native PN-1 is added to E. coli. To purify soluble PN-1, the cell supernatant from the disruption step was clarified by centrifugation and filtration or by treatment with polycations such as polyethyleneimine or Biacryl™ followed by centrifugation and filtration, and the soluble protein was purified as above. The generation of soluble material has many advantages: there is more certainty that the protein is correctly folded, there are no refolding steps, there is greater reproducibility from batch to batch.

[7] = serum half-life after tail vein injection, sandwich ELISA; conditions: rat
From the text: The PN-1 variant N99C;N140C was PEGylated by reaction with the Maleimido-PEG reagent as described above in section G.2. Small scale reactions were first performed to determine the excess of Maleimido-PEG reagent required to drive the reaction to completion, i.e., to PEGylate both the N99C and N140C sites of the protein. The final PEGylation reaction contained about a 3-fold excess of Maleimido-PEG over the amount of N99C;N140C protein in the reaction mixture. Cysteine-PEGylated protein was purified by ion exchange chromatography as described in Section D3 above with an additional final Mono-S ion exchange step. The bis-modified,cysteine-PEGylated N99C;140C protein and unmodified N99C;N140C protein were resuspended in 50 mM PIPES pH 6.7, 150 mM NaCl, 10% glycerol.
The serum half-life of the PEGylated N99C;N140C variant was compared to the half-life of the unmodified N99C;N140C variant by injecting a 0.3 ml of a 3 mg/ml solution containing either the cysteine-PEGylated N99C;N140C or unmodified N99C;N140C into the tail vein of 200 g rats. At 2 min, 10 min, 30 min, 60 min, and 120 min after injection, a 0.5 ml blood sample was collected onto EDTA anticoagulant. The blood samples were centrifuged to separate plasma from blood cells, and the concentration of cysteine-PEGylated N99C;N140C or unmodified N99C;N140C determined by sandwich ELISA as described by Evans et al. (1991) J. Biol. Chem. 266:22307-22312, using a rabbit polyclonal antibody.

Molecule	inhibition of elastase [1]	inhibitory activity against elastase [2]	ACTIVITY, AFTER PEG MODIFICATION [3]	SPECIFIC ACTIVITY, BEFORE PEG MODIFICATION [3]	REL TO WT, BEFORE PEG MODIFICATION [3]	REL TO ACTIVITY BEFORE PEG, AFTER PEG MODIFICATION [3]	acceleration of thrombin inhibition in the presence of heparin [4]	inhibition of cathepsin G [5]	effect on E. coli [6]	change of specific activity with increasing PEGylation reagent in reaction mixture (FIG. 4) ([3]; increasing ratio of PEG reagent to protein)	activity retained relative to unmodified PN-1 ([3]; reacted at a ratio of 3:1 Maleimido-PEG to protein)	enhancement of t1/2 by cysteine-PEGylation ([7]; in vivo)	total administered amount present in the blood stream ([7]; in vivo, 60 min)	t1/2 (serum half-life) ([7]; in vivo, iv)	REL TO WT, AFTER PEG MODIFICATION ([3]; cysteine-PEGylated protein relative to wild type PN-1)	t1/2 (serum half-life) ([7]; tail vein injection)	total administered amount present in the blood stream ([7]; tail vein injection, 60 min time point)
B1	does not inhibit	no inhibitory activity against elastase	0.017 NIH units of thrombin inhibited per μg PN1 (variant)	0.50 NIH units of thrombin inhibited per μg PN1 (variant)	1	0.03	50-100 fold	does not inhibit	bactericidal								
B2										increased with an increasing amount of the Maleimido-PEG reagent	at least 100%	about 6 fold	55-60%	60 to 80 min			
B3			0.40 NIH units of thrombin inhibited per μg PN1 (variant)	0.20 NIH units of thrombin inhibited per μg PN1 (variant)	0.40	2									0.80	10 to 12 min	less than 3%
